Here are results for 3 molecules from patent US20240067734A1 (Hoffmann-La Roche, published 2024).

In assay [1] the target is T1, di huNKG2D ECD Fc avi (human, biotinylated at the avi-tag).
T1 construct: Dimeric fusion of human NKG2D ECD to the C-terminus of an avi-tagged human IgG1 Fc
Briefly: SPR Biacore; IgG captured by anti-Fab, antigen analyte; TraceDrawer fit. As to the method: (§1) Around 1500 resonance units (RU) of the capture antibody (10 μg/ml human Fab Capture Kit, GE Healthcare Life Sciences, #28958325) were coupled onto a CM5 chip (GE Healthcare, #BR-1005-30) using a BIACORE® B4000 instrument (GE Healthcare) at pH 5.0 by using an amine coupling kit supplied by GE Healthcare. The sample and system buffer was PBS-T (10 mM phosphate buffered saline including 0.05% TWEEN® (polysorbate) 20) pH 7.4. The flow cells were set to 25° C.—and the sample block set to 12° C.—and primed twice with running buffer. The antibody was captured by injecting a ˜10 μg/ml solution for 60 sec at a flow rate of 10 μl/min. Association was measured by injection of di huNKG2D ECD Fc avi (SEQ ID NO: 96) or di cyNKG2D ECD Fc avi (SEQ ID NO: 97) in various concentrations in solution for 180 s at a flow rate of 30 μl/min starting with 600 nM, 300 nM, 150 nM following […] dilutions. The dissociation phase was monitored for up to 450 s and triggered by switching from the sample solution to running buffer. The surface was regenerated by 2×90 s washing with a glycine pH 2.1 solution at a flow rate of 30 μl/min and an additional stabilization period of 180 s. Bulk refractive index differences were corrected by subtracting the response obtained from an anti-human Fab surface. Blank injections were also subtracted (=double referencing). For calculation of KD, kₐ and kd (see Table 8), the Langmuir 1:1 model in the BIACORE® 4000 Evaluation software 1.1 (GE Healthcare) or TraceDrawer 1.6.1 (Ridgeview Instruments AB) were used.
A general note: In SPR one partner is held on a chip, and binding of the other changes the refractive index at the surface.

In assay [2] the target is T2, human NKG2D expressed on cells (human, UniProt P26718 1-216).
T2 construct: the cell type is named under assay; also called NKG2D on NK92 cells; HEK293T human NKG2D
T2 chain: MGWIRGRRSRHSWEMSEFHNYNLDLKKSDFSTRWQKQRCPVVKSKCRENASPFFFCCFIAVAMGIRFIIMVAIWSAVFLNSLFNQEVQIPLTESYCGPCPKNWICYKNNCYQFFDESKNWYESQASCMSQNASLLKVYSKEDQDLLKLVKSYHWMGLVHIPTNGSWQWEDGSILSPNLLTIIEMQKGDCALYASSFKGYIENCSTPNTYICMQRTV
Briefly: flow cytometry; NK92 cells; NK92 cells, Table 11 immune-cell binding (concentration dependent). A general note: Flow cytometry measures light scatter and fluorescence of single cells or particles in a stream.

Assay [3] concerns the target T2, human NKG2D expressed on cells. Briefly: flow cytometry; expanded human NK cells; NK cells, Table 11 immune-cell binding. The protocol: Viability of expanded NK cells was checked and cells were adjusted to a density of 1 mio cells/ml in FACS buffer. 100 μl of these cell suspensions (containing 0.1 mio cells) were seeded into a 96 well round bottom plate. The plate was centrifuged for 4 min at 400×g and the supernatant was removed. Then 0.5 μl FC BLOCK™ (BD Bioscience) in 20 μl total volume per well were added and the plate was incubated for 30 min at 4° C. Supernatant was removed and then 40 μl of the diluted NKG2D antibodies were added to the cells and incubated for additional 30 min at 4° C. After the incubation the cells were washed twice with 150 μl FACS buffer per well. Then 20 μl of the diluted FITC anti-human Fc specific secondary antibody (Jackson ImmunoResearch, #109-096-098) was added to the cells. The cells were incubated for an additional 30 min at 4° C. To remove unbound antibody the cells were washed again twice with 150 μl per well FACS buffer. To fix the cells 100 μl of FACS buffer containing 1% PFA were added to the wells. Before measuring the cells were re-suspended in 150 μl FACS buffer. The fluorescence was measured using a BD CantoII flow cytometer.

The target in assay [4] is T3, di cyNKG2D ECD Fc avi (cynomolgus, biotinylated at the avi-tag).
T3 construct: Dimeric fusion of cynomolgus NKG2D ECD to the C-terminus of an avi-tagged human IgG1 Fc; also called recombinant cynomolgus NKG2D
Briefly: SPR Biacore; IgG captured by anti-Fab, antigen analyte; TraceDrawer fit. As to the method: as §1

T3 sequence (chain, as listed by the source limits assumed): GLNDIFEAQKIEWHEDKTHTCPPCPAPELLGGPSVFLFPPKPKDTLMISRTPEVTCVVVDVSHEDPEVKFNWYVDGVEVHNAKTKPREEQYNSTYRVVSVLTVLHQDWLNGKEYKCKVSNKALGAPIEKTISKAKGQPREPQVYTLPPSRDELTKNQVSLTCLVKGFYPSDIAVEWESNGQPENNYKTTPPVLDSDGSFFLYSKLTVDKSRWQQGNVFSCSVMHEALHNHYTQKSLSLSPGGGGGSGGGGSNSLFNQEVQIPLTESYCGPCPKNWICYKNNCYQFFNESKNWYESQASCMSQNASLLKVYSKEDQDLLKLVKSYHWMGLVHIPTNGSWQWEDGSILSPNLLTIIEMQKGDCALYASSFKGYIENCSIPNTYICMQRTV

B1: anti-NKG2D antibody 5C5 (IgG) (antibody, V domains shown)
VH: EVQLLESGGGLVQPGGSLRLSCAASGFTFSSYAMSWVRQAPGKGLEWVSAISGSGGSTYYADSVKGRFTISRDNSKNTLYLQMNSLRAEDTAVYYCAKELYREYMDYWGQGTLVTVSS
VL: SSELTQDPAVSVALGQTVRITCQGDSLRSYYASWYQQKPGQAPVLVIYGKNNRPSGIPDRFSGSSSGNTASLTITGAQAEDEADYYCNSRDSFSIHQNVFGGGTKLTVL
notes: also called clone 5C5
What is called Kd is a measure of binding affinity in units of concentration. Broadly, the koff is a measure of how fast the partners let go of each other. Lower therefore signals slow dissociation. The term kon denotes the second-order rate constant of association. Lower therefore signals slower complex formation. For B1, in assay [1], the Kd was determined as 63 nM, the koff was determined as 0.014 s⁻¹ and the kon stood at 220000 M⁻¹ s⁻¹.

B2: anti-NKG2D antibody clone 013 (antibody, V domains shown)
VH: EQSGGGAGGGLVKPGGSLELCCKASGFDFSIYWMSWVRQSPGKGLEWIGRIYGGSSDYTAYASWVNGRFTLSRDIDQSTGCLQLNSLTAADTAMYYCVRLNPSFSRSFDYWGQGTLVTVSS
VL: DIQMTQSPSSVSASVGDRVTITCRASQGIFSWLVWYQQKPGKAPELLMYGASTLQSGVPSRFSGSGSGTDFTLTISSLQPEDFATYYCQQGYSTPYTFGQGTKVEIK
notes: From transgenic rabbits
The term EC50 denotes the midpoint of the concentration-response curve. Higher therefore signals a less potent agent. For the molecule B2, the EC50 in assay [2] amounted to 122 nM; in assay [3] it was 48.8 nM.

B3: anti-NKG2D antibody clone 296 (antibody, V domains shown)
VH: EVQLLESGGGLVQPGGSLRLSCAASGFTFSSYAMSWVRQAPGKGLEWVSAIGIGGGGTYYADSVKGRFTISRDNSKNTLYLQMNSLRAEDTAVYHCAKGASFDFINFFPYWGQGTLVTVSS
VL: DIQMTQSPSSLSASVGDRVTITCRASQGISNDLAWYQQKPGKAPKLLIYAASSLQSGVPSRFSGSGSGTDFTLTISSLQPEDFATYYCQQTYSTPLTFGGGTKVEIK
notes: From transgenic rabbits
For the molecule B3, in assay [4], the Kd worked out at 710 nM, the koff stood at 0.09 s⁻¹ and the kon was 130000 M⁻¹ s⁻¹.
